# Experimental data reported in patent US20240100176A1 (Eli Lilly, published 2024).
# B1: anti-human IL-4Rα antibody Ab1 (antibody, human IgG4 S228P, kappa)
# heavy: QVQLVESGGGLVQPGGSLRLSCVASGFTFSHSSMNWVRQAPGKGLEWVSYISRATGAVYYADSVKGRFTISRDNAKNSLYLQMNSLRDEDTAVYYCAREPVFDYWGQGTLVTVSSASTKGPCVFPLAPCSRSTSESTAALGCLVKDYFPEPVTVSWNSGALTSGVHTFPAVLQSSGLYSLSSVVTVPSSSLGTKTYTCNVDHKPSNTKVDKRVESKYGPPCPPCPAPEFLGGPSVFLFPPKPKDTLMISRTPEVTCVVVDVSQEDPEVKFNWYVDGVEVHNAKTKPREEQFNSTYRVVSVLTVLHQDWLNGKEYKCKVSNKGLPSSIEKTISKAKGQPREPQVYTLPPSREEMTKNQVSLTCLVKGFYPSDICVEWESNGQPENNYKTTPPVLDSDGSFFLYSRLTVDKSRWQQGNVFSCSVMHEALHNHYTQKSLSLSLG
# light: DIQMTQSPSAMSASVGDRVTITCRASQDISNYLAWFQQKPGKVPTRLIYAASSLQSGVPSRFSGSGSGTEFTLTISSLQPEDFATYYCLQWSSYPRTFGQGTKVEIKRTVAAPSVFIFPPSDEQLKSGTASVVCLLNNFYPREAKVQWKVDNALQSGNSQESVTEQDSKDSTYSLSSTLTLSKADYEKHKVYACEVTHQGLSSPVTKSFNRGEC
# notes: human kappa light chain; also called anti-human IL-4Rα Ab1; unconjugated Ab1
# Columns and labels:
# Experiment in all cases: capture ELISA: Ab1 on anti-human IgG Fc, His-tagged receptor at 0.2 µg/mL, anti-His HRP
# [1] = target: T1, hexahistidine tagged human IL-4Rα ECD L42G (human, UniProt P24394 26-232)
# T1 construct: not shown: hexahistidine tag
# T1 sequence (P24394 26-232 L67G): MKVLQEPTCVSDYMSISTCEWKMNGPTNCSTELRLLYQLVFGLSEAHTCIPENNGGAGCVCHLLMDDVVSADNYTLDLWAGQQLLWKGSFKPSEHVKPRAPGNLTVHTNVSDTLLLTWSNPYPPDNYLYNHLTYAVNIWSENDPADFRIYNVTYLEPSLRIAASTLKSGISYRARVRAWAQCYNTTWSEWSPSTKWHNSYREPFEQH
# Source text: (§1) Example 2d. […] Briefly, thirty surface amino acid residue substitutions were introduced individually into hexahistidine tagged human IL-4Rα extra cellular domain (ECD) as follows: K2D, E6R, K22D, P26R, T31R, F41A, L42G, L43G, E45R, E52R, G56R, D66R, A71R, Q82G, K87D, E94R, H107A, D108R, P124R, D125R, D143R, R148D, L155R, R160D, S164R, S168R, Q181R, P192R, K195D, or H197G. Each mutant protein having a single amino acid residue substitution as described above was transiently expressed in CHO cells and purified using standard immobilized metal affinity chromatography techniques. […] The plates were then washed 3 times with PBST and the exemplified human IL-4Rα antibody was added to the wells at a final concentration of 1 μg/mL in PBS-casein and incubated for 1 hour at room temperature. The plates were washed 3 times with PBST, the IL-4Rα mutant proteins were serially diluted 5-fold from 1 μg/mL for 3 points. in PBS-casein and added to the plate at 50 μL/well and incubated for 1 hour at room temperature. The plates were washed 3 times with PBST and a 1000-fold dilution of anti-histidine tag antibody HRP conjugate (R&D Systems, Cat. #MAB050H) in PBS-casein was added and incubated for 45 minutes at room temperature. The plates were washed 3 times, TMB substrate (Pierce, Cat. #34028) was added per manufacturer instructions, the reaction was quenched with H₂SO₄, and absorbance was read at 450 nm on an ELISA plate reader.
# [2] = target: T2, hexahistidine tagged human IL-4Rα ECD R160D (human, UniProt P24394 26-232)
# T2 construct: not shown: hexahistidine tag
# T2 sequence (P24394 26-232 R185D): as the sequence (P24394 26-232 L67G) above, with G42L, R160D counted along it
# Source text: as §1
# [3] = target: T3, hexahistidine tagged human IL-4Rα ECD P26R (human, UniProt P24394 26-232)
# T3 construct: not shown: hexahistidine tag
# T3 sequence (P24394 26-232 P51R): as the sequence (P24394 26-232 L67G) above, with P26R, G42L counted along it
# Source text: as §1
# [4] = target: T4, hexahistidine tagged human IL-4Rα ECD K22D (human, UniProt P24394 26-232)
# T4 construct: not shown: hexahistidine tag
# T4 sequence (P24394 26-232 K47D): as the sequence (P24394 26-232 L67G) above, with K22D, G42L counted along it
# Source text: as §1
# [5] = target: T5, hexahistidine tagged human IL-4Rα ECD K87D (human, UniProt P24394 26-232)
# T5 construct: not shown: hexahistidine tag
# T5 sequence (P24394 26-232 K112D): as the sequence (P24394 26-232 L67G) above, with G42L, K87D counted along it
# Source text: as §1
# [6] = target: T6, hexahistidine tagged human IL-4Rα ECD P192R (human, UniProt P24394 26-232)
# T6 construct: not shown: hexahistidine tag
# T6 sequence (P24394 26-232 P217R): as the sequence (P24394 26-232 L67G) above, with G42L, P192R counted along it
# Source text: as §1
# [7] = target: T7, hexahistidine tagged human IL-4Rα ECD E94R (human, UniProt P24394 26-232)
# T7 construct: not shown: hexahistidine tag
# T7 sequence (P24394 26-232 E119R): as the sequence (P24394 26-232 L67G) above, with G42L, E94R counted along it
# Source text: as §1
# [8] = target: T8, hexahistidine tagged human IL-4Rα ECD L43G (human, UniProt P24394 26-232)
# T8 construct: not shown: hexahistidine tag
# T8 sequence (P24394 26-232 L68G): as the sequence (P24394 26-232 L67G) above, with G42L, L43G counted along it
# Source text: as §1
# [9] = target: T9, hexahistidine tagged human IL-4Rα ECD D143R (human, UniProt P24394 26-232)
# T9 construct: not shown: hexahistidine tag
# T9 sequence (P24394 26-232 D168R): as the sequence (P24394 26-232 L67G) above, with G42L, D143R counted along it
# Source text: as §1
# [10] = target: T10, hexahistidine tagged human IL-4Rα ECD F41A (human, UniProt P24394 26-232)
# T10 construct: not shown: hexahistidine tag
# T10 sequence (P24394 26-232 F66A): as the sequence (P24394 26-232 L67G) above, with F41A, G42L counted along it
# Source text: as §1
# [11] = target: T11, hexahistidine tagged human IL-4Rα ECD L155R (human, UniProt P24394 26-232)
# T11 construct: not shown: hexahistidine tag
# T11 sequence (P24394 26-232 L180R): as the sequence (P24394 26-232 L67G) above, with G42L, L155R counted along it
# Source text: as §1
# [12] = target: T12, hexahistidine tagged human IL-4Rα ECD P124R (human, UniProt P24394 26-232)
# T12 construct: not shown: hexahistidine tag
# T12 sequence (P24394 26-232 P149R): as the sequence (P24394 26-232 L67G) above, with G42L, P124R counted along it
# Source text: as §1
# [13] = target: T13, hexahistidine tagged human IL-4Rα ECD Q181R (human, UniProt P24394 26-232)
# T13 construct: not shown: hexahistidine tag
# T13 sequence (P24394 26-232 Q206R): as the sequence (P24394 26-232 L67G) above, with G42L, Q181R counted along it
# Source text: as §1
# [14] = target: T14, hexahistidine tagged human IL-4Rα ECD Q82G (human, UniProt P24394 26-232)
# T14 construct: not shown: hexahistidine tag
# T14 sequence (P24394 26-232 Q107G): as the sequence (P24394 26-232 L67G) above, with G42L, Q82G counted along it
# Source text: as §1
# [15] = target: T15, hexahistidine tagged human IL-4Rα ECD G56R (human, UniProt P24394 26-232)
# T15 construct: not shown: hexahistidine tag
# T15 sequence (P24394 26-232 G81R): as the sequence (P24394 26-232 L67G) above, with G42L, G56R counted along it
# Source text: as §1
# [16] = target: T16, hexahistidine tagged human IL-4Rα ECD H197G (human, UniProt P24394 26-232)
# T16 construct: not shown: hexahistidine tag
# T16 sequence (P24394 26-232 H222G): as the sequence (P24394 26-232 L67G) above, with G42L, H197G counted along it
# Source text: as §1
# [17] = target: T17, hexahistidine tagged human IL-4Rα ECD K195D (human, UniProt P24394 26-232)
# T17 construct: not shown: hexahistidine tag
# T17 sequence (P24394 26-232 K220D): as the sequence (P24394 26-232 L67G) above, with G42L, K195D counted along it
# Source text: as §1
# [18] = target: T18, hexahistidine tagged human IL-4Rα ECD A71R (human, UniProt P24394 26-232)
# T18 construct: not shown: hexahistidine tag
# T18 sequence (P24394 26-232 A96R): as the sequence (P24394 26-232 L67G) above, with G42L, A71R counted along it
# Source text: as §1
binder,measurement,setting,value
B1,ELISA (OD450),[1],1.48 OD450
same,ELISA (OD450),[2],1.7 OD450
same,ELISA (OD450),[3],1.52 OD450
same,ELISA (OD450),[4],1.3 OD450
same,ELISA (OD450),[5],1.56 OD450
same,ELISA (OD450),[6],1.75 OD450
same,ELISA (OD450),[7],1.64 OD450
same,ELISA (OD450),[8],1.7 OD450
same,ELISA (OD450),[9],1.69 OD450
same,ELISA (OD450),[10],1.54 OD450
same,ELISA (OD450),[11],1.68 OD450
same,ELISA (OD450),[12],1.7 OD450
same,ELISA (OD450),[13],1.71 OD450
same,ELISA (OD450),[14],1.53 OD450
same,ELISA (OD450),[15],1.7 OD450
same,ELISA (OD450),[16],1.6 OD450
same,ELISA (OD450),[17],1.65 OD450
same,ELISA (OD450),[18],1.57 OD450
